This data set deals with the molecule itself. The data set is described as follows: cross-linking.

B1: GSDMA_(1–246) (domain or fragment, human, UniProt Q96QA5 1-246, looked up)
chain: MTMFENVTRALARQLNPRGDLTPLDSLIDFKRFHPFCLVLRKRKSTLFWGARYVRTDYTLLDVLEPGSSPSDPTDTGNFGFKNMLDTRVEGDVDVPKTVKVKGTAGLSQNSTLEVQTLSVAPKALETVQERKLAADHPFLKEMQDQGENLYVVMEVVETVQEVTLERAGKAEACFSLPFFAPLGLQGSINHKEAVTIPKGCVLAFRVRQLMVKGKDEWDIPHICNDNMQTFPPGEKSGEEKVILIQ
As to B1, the binding result is listed as “binds”.

The values above are taken from paper PMC9703647 (Nature, 2022).
